{"source": "paper PMC12421958", "about": "“Dual regulatory role of cyclic di-GMP via the DgcY/HhmR complex in salt response of Halomonas hydrothermalis Y2” (mBio, 2025)", "key": {"[1]": {"biological_target": "DgcY_(202–406) (Halomonas hydrothermalis Y2)", "test": "MST; as a3, buffer containing 15 µM c-di-GMP"}, "[2]": {"biological_target": "DgcY_(202–406) (Halomonas hydrothermalis Y2)"}, "[3]": {"biological_target": "DgcY_(202–406) (Halomonas hydrothermalis Y2)", "test": "MST; as a3, buffer containing 2.5 µM c-di-GMP"}, "[4]": {"biological_target": "DgcY_(202–406) (Halomonas hydrothermalis Y2)", "remark": "listed apart in the source"}, "[5]": {"biological_target": "DgcY_(202–406) (Halomonas hydrothermalis Y2)", "test": "MST; as a3, buffer containing 0.5 µM c-di-GMP"}, "[6]": {"biological_target": "DgcY_(202–406) (Halomonas hydrothermalis Y2)", "test": "MST; His-tagged protein labelled with Red-tris-NTA, ligand in twofold serial dilutions, PBS-T buffer, 25°C; no c-di-GMP"}, "DgcY222–406": {"biological_target": "T1, DgcY222–406", "T1 construct": "gene dgcY; GGDEF domain 222-406 only, TM and helical (HD) regions removed; pET24a, E. coli BL21(DE3), His-tag", "test": "microscale thermophoresis (MST)", "type": "binding, Vreelandella hydrothermalis", "conditions": "25 °C, PBS-T; without HhmR; His-tag protein labelled with RED-tris-NTA"}, "DgcY202–406": {"biological_target": "T2, DgcY202–406", "T2 construct": "gene dgcY; intracellular fragment 202-406 (helical domain 203-221 + GGDEF 222-406) of 406-residue protein, TM domain removed; pET24a, E. coli BL21(DE3), His-tag, labelled by RED-tris-NTA for MST", "test": "microscale thermophoresis (MST)", "type": "binding, Vreelandella hydrothermalis", "conditions": "25 °C, PBS-T; without HhmR; His-tag protein labelled with RED-tris-NTA"}}}
{"compound": "HhmR (natural protein)", "values": [{"measurement": "Kd", "setting": "[1]", "value": 0.0341, "unit": "µM"}, {"measurement": "c-di-GMP made by 10 µM DgcY202-406 with 15 µM HhmR, HPLC, 37°C, 2 to 8 h (with HhmR 9.47 µM at 3 h and 25.50 µM at 8 h; without HhmR 12.41 and 31.38 µM)", "setting": "[2]", "value": 25.5, "unit": "µM"}, {"measurement": "Kd", "setting": "[3]", "value": 0.0905, "unit": "µM"}, {"measurement": "c-di-GMP made by DgcY202-406 with HhmR and 15 µM added c-di-GMP, HPLC, 37°C, 8 h (38 µM without added c-di-GMP)", "setting": "[4]", "value": 30, "unit": "µM"}, {"measurement": "Kd", "setting": "[5]", "value": 0.105, "unit": "µM"}, {"measurement": "Kd", "setting": "[6]", "value": 8.96, "unit": "µM"}]}
{"compound": "Nc1nc2c(ncn2[C@@H]2O[C@@H]3COP(=O)(O)O[C@H]4[C@@H](O)[C@H](n5cnc6c(=O)[nH]c(N)nc65)O[C@@H]4COP(=O)(O)O[C@H]3[C@H]2O)c(=O)[nH]1", "note": "[c-di-GMP]", "values": [{"measurement": "Kd", "setting": "DgcY222–406", "value": 1170, "unit": "µM"}, {"measurement": "Kd", "setting": "DgcY202–406", "value": 53.2, "unit": "µM"}]}
{"compound": "HhmR_(90–305)^Q240D (domain or fragment)", "values": [{"measurement": "Kd", "setting": "[6]", "value": 0.571, "unit": "µM"}]}
{"compound": "HhmR_(90–305) (domain or fragment)", "values": [{"measurement": "Kd", "setting": "[6]", "value": 0.053, "unit": "µM"}]}
